In patent US20090192048A1, “METHOD OF PRODUCING A […] AGENT FOR BINDING A LIGAND” (priority 2005, published 2009):
Ends that are not written are not given here.

Columns and labels:
Format in all cases: physicochemical
[1] = Retention of peptides in V-bottomed polypropylene wells; settings: V-bottom wells, 500V scan
Summary of the method: (§1)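 1 μl of 10 μM peptide or TAMRA in 10 mM Tris-HCl pH 8.0/50% acetonitrile dried in the dark in flat- or V-bottomed polypropylene wells. Some wells washed 15 min at RT with 1 M NaCl in 10 mM Tris pH 8.0, others left untreated; all redissolved in 50 μl Tris/acetonitrile and fluorescence imaged at 532 nm excitation, 580 BP 30 filter.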

[2] = Retention of peptides in flat-bottomed polypropylene wells; settings: flat-bottom wells, 500V scan
Summary of the method: as §1

[3] = Retention of peptides 2DOS-1 to 2DOS-16 on a hydrophobic surface (polypropylene microtitre plate wells), water wash; settings: 400V scan
Summary of the method: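 10 μM peptides, with TAMRA, in 10 mM tris-HCl pH 8.0 in 50% acetonitrile, dried overnight in polypropylene wells, then washed ten times with water. Retained peptide resuspended in the same solvent and fluorescence imaged (532 nm excitation, 580 nm filter). Quantified from 400 V scans.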

[4] = Retention of peptides on Greiner polypropylene V-bottom wells; settings: 400V scan
Summary of the method: (§2)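 Peptides (5 μM) and TAMRA dried from 5 mM tris-HCl pH 8.0 in 75% acetonitrile in V-bottom wells; some wells washed 15 min at room temperature with 1 M NaCl in 10 mM tris-HCl pH 8.0. Residue redissolved in 10 mM tris-HCl pH 8.0/50% acetonitrile; retained fluorescence imaged with 532 nm excitation, 580 BP 30 filter.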

[5] = Retention of peptides on Greiner polystyrene V-bottom wells; settings: 400V scan
Summary of the method: as §2

[6] = pH resistance of peptide 2DOS-2 deposited onto a polypropylene hydrophobic surface; settings: for Retained fluorescence: 100 mM phosphate buffer 30 minutes
Experimental: The pH resistance of peptide 2DOS-2 (see above) deposited onto a polypropylene hydrophobic surface was investigated:
Twelve 50 μl aliquots of peptide 2DOS-2 in 10 mM tris-HCl (pH 8.0) in 50% (v/v) aqueous acetonitrile were dried down in the wells of a Costar microtitre plate.
The peptide samples were allowed to evaporate to dryness in the dark.
The dried peptide samples in the first eleven wells were incubated with 200 μl of 100 mM phosphate buffer for 30 minutes at room temperature according to the scheme shown in Table 3:
All supernatants were pipetted off and the residual surface-bound peptides in all twelve wells were finally resuspended in 50 μl of 10 mM tris-HCl (pH 8.0) in 50% (v/v) aqueous acetonitrile and the microtitre plate was imaged at 200 μm resolution on a Typhoon Trio Plus variable mode imager (Amersham Biosciences) with the green (532 nm) laser and the 580 BP 30 filter at the PMT voltages indicated below and at normal sensitivity. The scan height was set at +3 mm and the sample was pressed during scanning.
The fluorescence images were analysed using ImageQuant TL v2003.03 (Amersham Biosciences).
Quantification data for peptide 2DOS-2 retention (using data from the 300V scan) are given in Table 8 and graphically in FIG. 19: […]

[7] = Retention of peptides on Costar polypropylene V-bottom wells; settings: 400V scan
Summary of the method: as §2

[8] = washed 15 minutes in 1 M NaCl in 10 mM tris-HCl (pH 8.0)

N-TAMRA-Phe-Asp- Phe-Ala-Phe-Ser- Phe-Lys-Phe-C ({TAMRA}-FDFAFSFKF) [Peptide 2DOS-2]
Percent retention [1]: 86% | Untreated fluorescence ([1]; unwashed): 9,495,183 | Retained fluorescence [1, 8]: 8,127,309 | Percent retention [2]: 93% | Untreated fluorescence ([2]; unwashed): 15,820,680 | Retained fluorescence [2, 8]: 14,665,720 | Initial fluorescence (×10^3) ([3]; 100 μl of 10 μM peptide before drying and washing): 32,492 ×10^3 | Recovered fluorescence (×10^3) ([3]; dried, washed ten times with 250 μl water, resuspended): 15,704 ×10^3 | Percent retention [4]: 78% | Untreated fluorescence ([4]; unwashed): 3,512,023 | Retained fluorescence [4, 8]: 2,731,827 | Percent retention [5]: 64% | Untreated fluorescence ([5]; unwashed): 614,203 | Retained fluorescence [5, 8]: 392,422 | Untreated fluorescence ([6]; 300V scan, unwashed well): 815,706 | Stability of retention on polypropylene over pH (in words) ([6]; pH 4.51 to 8.52): stable over a broad range of pH values | Percent retention ([6]; wash pH 4.51): 83% | Retained fluorescence ([6]; wash pH 4.51, 300V scan): 681,015 | Percent retention ([6]; wash pH 5.65): 71% | Retained fluorescence ([6]; wash pH 5.65, 300V scan): 582,482 | Percent retention ([6]; wash pH 6.02): 67% | Retained fluorescence ([6]; wash pH 6.02, 300V scan): 548,329 | Percent retention ([6]; wash pH 6.25): 67% | Retained fluorescence ([6]; wash pH 6.25, 300V scan): 542,595 | Percent retention ([6]; wash pH 6.47): 72% | Retained fluorescence ([6]; wash pH 6.47, 300V scan): 589,528 | Percent retention ([6]; wash pH 6.62): 69% | Retained fluorescence ([6]; wash pH 6.62, 300V scan): 566,496 | Percent retention ([6]; wash pH 6.79): 71% | Retained fluorescence ([6]; wash pH 6.79, 300V scan): 576,655 | Percent retention ([6]; wash pH 6.98): 70% | Retained fluorescence ([6]; wash pH 6.98, 300V scan): 570,653 | Percent retention ([6]; wash pH 7.18): 72% | Retained fluorescence ([6]; wash pH 7.18, 300V scan): 586,083 | Percent retention ([6]; wash pH 7.47): 75% | Retained fluorescence ([6]; wash pH 7.47, 300V scan): 614,028 | Percent retention ([6]; wash pH 8.52): 81% | Retained fluorescence ([6]; wash pH 8.52, 300V scan): 661,781 | Percent retention [7]: 94% | Untreated fluorescence ([7]; unwashed): 5,692,134 | Retained fluorescence [7, 8]: 5,349,601
